Target: MERTK (UniProt Q12866)
Experiment: phosphorylation enrichment, bacterial display (enrichment ratio); higher = better substrate or ligand; peptides without Tyr show the background
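Further: 11-residue human phosphosite peptides and single-mutation variants displayed on the E. coli surface, counted by deep sequencing, each peptide's frequency after selection divided by its frequency in the unselected input library; frequency after pTyr selection over input frequency; kinase dosed for 20-30% of maximal phosphorylation in three min.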

Chain of MERTK (Q12866 whole entry, looked up): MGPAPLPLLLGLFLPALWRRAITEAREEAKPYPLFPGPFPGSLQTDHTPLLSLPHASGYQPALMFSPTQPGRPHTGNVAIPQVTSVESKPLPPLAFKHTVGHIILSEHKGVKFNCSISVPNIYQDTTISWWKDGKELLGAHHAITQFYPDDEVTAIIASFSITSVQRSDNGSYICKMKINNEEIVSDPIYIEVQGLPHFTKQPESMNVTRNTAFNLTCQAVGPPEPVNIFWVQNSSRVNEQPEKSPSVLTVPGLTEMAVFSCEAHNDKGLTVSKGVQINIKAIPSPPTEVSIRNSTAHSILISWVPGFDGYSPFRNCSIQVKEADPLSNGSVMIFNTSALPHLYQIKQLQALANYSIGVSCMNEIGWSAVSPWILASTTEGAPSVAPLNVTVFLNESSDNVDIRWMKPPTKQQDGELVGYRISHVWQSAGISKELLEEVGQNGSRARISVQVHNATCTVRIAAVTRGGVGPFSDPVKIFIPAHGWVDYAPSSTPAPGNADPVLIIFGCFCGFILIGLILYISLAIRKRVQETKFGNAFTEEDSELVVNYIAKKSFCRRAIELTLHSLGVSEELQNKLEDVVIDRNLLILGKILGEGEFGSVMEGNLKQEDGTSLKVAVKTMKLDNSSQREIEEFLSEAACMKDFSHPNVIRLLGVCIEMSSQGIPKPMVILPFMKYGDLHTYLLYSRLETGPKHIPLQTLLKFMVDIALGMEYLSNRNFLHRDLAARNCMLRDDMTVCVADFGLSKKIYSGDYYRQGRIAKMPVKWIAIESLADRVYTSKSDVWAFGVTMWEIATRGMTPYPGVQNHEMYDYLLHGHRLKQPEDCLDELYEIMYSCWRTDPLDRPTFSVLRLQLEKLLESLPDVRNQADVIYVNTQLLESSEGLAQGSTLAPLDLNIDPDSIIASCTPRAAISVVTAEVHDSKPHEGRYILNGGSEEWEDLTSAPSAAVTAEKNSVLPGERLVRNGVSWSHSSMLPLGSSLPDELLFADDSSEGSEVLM

Sequence | phosphorylation enrichment
SAEKAYHEQLS [TUBA1A_Y282] | 0.418
SHISGYATLRR [RAPH1_Y1226] | 0.438
KCLAVYQAGAR [APOE_Y180_R176C] | 0.478
VLTSKHRGGGG [HBA1_Y141_Y141H] | 0.677
QTLTDYDTRFY [CSNK2A3_Y131_I133T] | 0.483
MKDLTYASLCF [ALOX5_Y446] | 3.15
SWSTSYSGFRF [NKAPL_Y91_YF] | 0.535
EKRDAYVSCLN [GSR_Y150_R153C] | 0.472
ARVANYQRDGP [CAT_Y386] | 0.574
GVLKEYGVKVL [CPS1_Y529] | 0.488
EADRKYEEVAG [TPM3_Y163_R168G] | 0.48
GDAMLYYPSVS [GPR143_Y177_A173D] | 4.84
RQNRFYDAKVR [FKBP6_Y188] | 0.672
NRKGKYFNVER [ANAPC4_Y469] | 0.411
VFAPDFIAGVS [NOB1_Y366_Y366F] | 0.469
GIVEDYRPTFF [ACVRL1_Y421_P424T_YF] | 0.452
QRIFQYIRSRF [DYRK1B_Y273_Q275R_YF] | 0.975

Sequence | phosphorylation enrichment
ILGRFYETGSI [PAX2_Y73_YF] | 0.428
GFIISYREEEQ | 0.313
IRTIDYRFTVW [IDS_Y497_YF] | 0.402
KEAQVYQAFKL [SUCLG2_Y343] | 2.84
KDQGIYEDFVE [MYL6_Y86_T85I_YF] | 0.614
FSMGCYEISLE [HMGCL_Y198_G203E_YF] | 0.623
SRGSSYNSIPK [FLNC_Y2625_S2626N] | 0.525
ATHSRYRLNDY [CLDN14_Y233_G232R] | 0.459
SIKDKYVTVLF [KCNH2_Y611_A614V_YF] | 0.375
ENGPFYASFPP [GDAP2_Y488_T489A_YF] | 11.5
ECKLFYSRKEG [PTPN11_Y263_L262F] | 0.515
STSKTYVISQT [RBBP6_Y87_R91Q] | 0.44
MVSLFYGTAIF [OR10C1_Y251_L255I] | 0.63
RLLVVYPSTQR [HBB_Y36_W38S] | 0.753
LGRTVYADCLA [ABCA4_Y2063_L2060R] | 0.939
VTRKEYFIFLE [CAMKV_Y95] | 0.401

Target: EPHB1 (UniProt P54762)
Experiment: as above

Chain of EPHB1 (P54762 whole entry, looked up): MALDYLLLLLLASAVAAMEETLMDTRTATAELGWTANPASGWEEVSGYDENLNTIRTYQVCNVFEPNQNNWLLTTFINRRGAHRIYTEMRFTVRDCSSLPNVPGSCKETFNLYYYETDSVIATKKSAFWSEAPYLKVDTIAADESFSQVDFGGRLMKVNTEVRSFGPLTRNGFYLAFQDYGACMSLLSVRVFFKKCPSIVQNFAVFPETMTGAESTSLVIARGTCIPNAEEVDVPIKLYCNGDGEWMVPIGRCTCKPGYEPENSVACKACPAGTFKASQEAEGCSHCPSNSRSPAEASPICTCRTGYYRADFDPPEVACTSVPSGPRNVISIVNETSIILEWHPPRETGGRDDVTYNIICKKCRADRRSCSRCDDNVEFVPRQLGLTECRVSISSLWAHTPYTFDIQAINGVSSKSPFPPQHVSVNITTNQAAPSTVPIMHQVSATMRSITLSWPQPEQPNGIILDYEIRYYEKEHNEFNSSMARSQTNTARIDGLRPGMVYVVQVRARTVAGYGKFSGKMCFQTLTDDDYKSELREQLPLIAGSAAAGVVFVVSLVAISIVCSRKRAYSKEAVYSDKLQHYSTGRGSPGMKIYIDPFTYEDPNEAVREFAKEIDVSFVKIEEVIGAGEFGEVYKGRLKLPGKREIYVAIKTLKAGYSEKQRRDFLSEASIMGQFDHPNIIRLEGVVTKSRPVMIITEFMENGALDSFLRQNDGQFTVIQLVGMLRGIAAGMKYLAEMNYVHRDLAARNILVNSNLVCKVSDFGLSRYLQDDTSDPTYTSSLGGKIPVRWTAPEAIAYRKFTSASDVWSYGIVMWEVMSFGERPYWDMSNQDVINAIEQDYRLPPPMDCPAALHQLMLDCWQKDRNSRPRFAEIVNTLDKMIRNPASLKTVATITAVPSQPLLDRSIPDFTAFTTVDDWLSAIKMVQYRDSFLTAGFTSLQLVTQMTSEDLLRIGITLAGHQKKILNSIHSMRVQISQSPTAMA

Sequence | phosphorylation enrichment
SAEKAYHEQLS [TUBA1A_Y282] | 0.462
SHISGYATLRR [RAPH1_Y1226] | 0.374
KCLAVYQAGAR [APOE_Y180_R176C] | 0.597
VLTSKHRGGGG [HBA1_Y141_Y141H] | 0.318
QTLTDYDTRFY [CSNK2A3_Y131_I133T] | 0.861
MKDLTYASLCF [ALOX5_Y446] | 2.65
SWSTSYSGFRF [NKAPL_Y91_YF] | 0.588
EKRDAYVSCLN [GSR_Y150_R153C] | 0.568
ARVANYQRDGP [CAT_Y386] | 0.564
GVLKEYGVKVL [CPS1_Y529] | 0.369
EADRKYEEVAG [TPM3_Y163_R168G] | 0.655
GDAMLYYPSVS [GPR143_Y177_A173D] | 0.763
RQNRFYDAKVR [FKBP6_Y188] | 0.226
NRKGKYFNVER [ANAPC4_Y469] | 0.367
VFAPDFIAGVS [NOB1_Y366_Y366F] | 0.52
GIVEDYRPTFF [ACVRL1_Y421_P424T_YF] | 0.578
QRIFQYIRSRF [DYRK1B_Y273_Q275R_YF] | 0.817

Sequence | phosphorylation enrichment
ILGRFYETGSI [PAX2_Y73_YF] | 0.489
GFIISYREEEQ | 0.495
IRTIDYRFTVW [IDS_Y497_YF] | 0.629
KEAQVYQAFKL [SUCLG2_Y343] | 1.07
KDQGIYEDFVE [MYL6_Y86_T85I_YF] | 0.831
FSMGCYEISLE [HMGCL_Y198_G203E_YF] | 0.913
SRGSSYNSIPK [FLNC_Y2625_S2626N] | 0.417
ATHSRYRLNDY [CLDN14_Y233_G232R] | 0.484
SIKDKYVTVLF [KCNH2_Y611_A614V_YF] | 0.481
ENGPFYASFPP [GDAP2_Y488_T489A_YF] | 9.38
ECKLFYSRKEG [PTPN11_Y263_L262F] | 0.502
STSKTYVISQT [RBBP6_Y87_R91Q] | 0.391
MVSLFYGTAIF [OR10C1_Y251_L255I] | 0.619
RLLVVYPSTQR [HBB_Y36_W38S] | 0.602
LGRTVYADCLA [ABCA4_Y2063_L2060R] | 1.26
VTRKEYFIFLE [CAMKV_Y95] | 0.696

Source: the supplement of paper PMC10065799, “High-throughput profiling of sequence recognition by tyrosine kinases and SH2 domains using bacterial peptide display” (eLife, 2023)
